Reference: IntAct's records for PubMed 35266954

B1: Probable E3 ubiquitin-protein ligase MID2 (Homo sapiens), Q9UJV3 (parent)
chain: MGESPASVVLNASGGLFSLKMETLESELTCPICLELFEDPLLLPCAHSLCFSCAHRILVSSCSSGESIEPITAFQCPTCRYVISLNHRGLDGLKRNVTLQNIIDRFQKASVSGPNSPSESRRERTYRPTTAMSSERIACQFCEQDPPRDAVKTCITCEVSYCDRCLRATHPNKKPFTSHRLVEPVPDTHLRGITCLDHENEKVNMYCVSDDQLICALCKLVGRHRDHQVASLNDRFEKLKQTLEMNLTNLVKRNSELENQMAKLIQICQQVEVNTAMHEAKLMEECDELVEIIQQRKQMIAVKIKETKVMKLRKLAQQVANCRQCLERSTVLINQAEHILKENDQARFLQSAKNIAERVAMATASSQVLIPDINFNDAFENFALDFSREKKLLEGLDYLTAPNPPSIREELCTASHDTITVHWISDDEFSISSYELQYTIFTGQANFISKSWCSWGLWPEIRKCKEAVSCSRLAGAPRGLYNSVDSWMIVPNIKQNHYTVHGLQSGTRYIFIVKAINQAGSRNSEPTRLKTNSQPFKLDPKMTHKKLKISNDGLQMEKDESSLKKSHTPERFSGTGCYGAAGNIFIDSGCHYWEVVMGSSTWYAIGIAYKSAPKNEWIGKNASSWVFSRCNSNFVVRHNNKEMLVDVPPHLKRLGVLLDYDNNMLSFYDPANSLHLHTFDVTFILPVCPTFTIWNKSLMILSGLPAPDFIDYPERQECNCRPQESPYVSGMKTCH

Variants of: B1
Conditions: with lrrk2_human LRRK2, Q5S007
Sequence of lrrk2_human LRRK2, Q5S007 (Q5S007 whole entry): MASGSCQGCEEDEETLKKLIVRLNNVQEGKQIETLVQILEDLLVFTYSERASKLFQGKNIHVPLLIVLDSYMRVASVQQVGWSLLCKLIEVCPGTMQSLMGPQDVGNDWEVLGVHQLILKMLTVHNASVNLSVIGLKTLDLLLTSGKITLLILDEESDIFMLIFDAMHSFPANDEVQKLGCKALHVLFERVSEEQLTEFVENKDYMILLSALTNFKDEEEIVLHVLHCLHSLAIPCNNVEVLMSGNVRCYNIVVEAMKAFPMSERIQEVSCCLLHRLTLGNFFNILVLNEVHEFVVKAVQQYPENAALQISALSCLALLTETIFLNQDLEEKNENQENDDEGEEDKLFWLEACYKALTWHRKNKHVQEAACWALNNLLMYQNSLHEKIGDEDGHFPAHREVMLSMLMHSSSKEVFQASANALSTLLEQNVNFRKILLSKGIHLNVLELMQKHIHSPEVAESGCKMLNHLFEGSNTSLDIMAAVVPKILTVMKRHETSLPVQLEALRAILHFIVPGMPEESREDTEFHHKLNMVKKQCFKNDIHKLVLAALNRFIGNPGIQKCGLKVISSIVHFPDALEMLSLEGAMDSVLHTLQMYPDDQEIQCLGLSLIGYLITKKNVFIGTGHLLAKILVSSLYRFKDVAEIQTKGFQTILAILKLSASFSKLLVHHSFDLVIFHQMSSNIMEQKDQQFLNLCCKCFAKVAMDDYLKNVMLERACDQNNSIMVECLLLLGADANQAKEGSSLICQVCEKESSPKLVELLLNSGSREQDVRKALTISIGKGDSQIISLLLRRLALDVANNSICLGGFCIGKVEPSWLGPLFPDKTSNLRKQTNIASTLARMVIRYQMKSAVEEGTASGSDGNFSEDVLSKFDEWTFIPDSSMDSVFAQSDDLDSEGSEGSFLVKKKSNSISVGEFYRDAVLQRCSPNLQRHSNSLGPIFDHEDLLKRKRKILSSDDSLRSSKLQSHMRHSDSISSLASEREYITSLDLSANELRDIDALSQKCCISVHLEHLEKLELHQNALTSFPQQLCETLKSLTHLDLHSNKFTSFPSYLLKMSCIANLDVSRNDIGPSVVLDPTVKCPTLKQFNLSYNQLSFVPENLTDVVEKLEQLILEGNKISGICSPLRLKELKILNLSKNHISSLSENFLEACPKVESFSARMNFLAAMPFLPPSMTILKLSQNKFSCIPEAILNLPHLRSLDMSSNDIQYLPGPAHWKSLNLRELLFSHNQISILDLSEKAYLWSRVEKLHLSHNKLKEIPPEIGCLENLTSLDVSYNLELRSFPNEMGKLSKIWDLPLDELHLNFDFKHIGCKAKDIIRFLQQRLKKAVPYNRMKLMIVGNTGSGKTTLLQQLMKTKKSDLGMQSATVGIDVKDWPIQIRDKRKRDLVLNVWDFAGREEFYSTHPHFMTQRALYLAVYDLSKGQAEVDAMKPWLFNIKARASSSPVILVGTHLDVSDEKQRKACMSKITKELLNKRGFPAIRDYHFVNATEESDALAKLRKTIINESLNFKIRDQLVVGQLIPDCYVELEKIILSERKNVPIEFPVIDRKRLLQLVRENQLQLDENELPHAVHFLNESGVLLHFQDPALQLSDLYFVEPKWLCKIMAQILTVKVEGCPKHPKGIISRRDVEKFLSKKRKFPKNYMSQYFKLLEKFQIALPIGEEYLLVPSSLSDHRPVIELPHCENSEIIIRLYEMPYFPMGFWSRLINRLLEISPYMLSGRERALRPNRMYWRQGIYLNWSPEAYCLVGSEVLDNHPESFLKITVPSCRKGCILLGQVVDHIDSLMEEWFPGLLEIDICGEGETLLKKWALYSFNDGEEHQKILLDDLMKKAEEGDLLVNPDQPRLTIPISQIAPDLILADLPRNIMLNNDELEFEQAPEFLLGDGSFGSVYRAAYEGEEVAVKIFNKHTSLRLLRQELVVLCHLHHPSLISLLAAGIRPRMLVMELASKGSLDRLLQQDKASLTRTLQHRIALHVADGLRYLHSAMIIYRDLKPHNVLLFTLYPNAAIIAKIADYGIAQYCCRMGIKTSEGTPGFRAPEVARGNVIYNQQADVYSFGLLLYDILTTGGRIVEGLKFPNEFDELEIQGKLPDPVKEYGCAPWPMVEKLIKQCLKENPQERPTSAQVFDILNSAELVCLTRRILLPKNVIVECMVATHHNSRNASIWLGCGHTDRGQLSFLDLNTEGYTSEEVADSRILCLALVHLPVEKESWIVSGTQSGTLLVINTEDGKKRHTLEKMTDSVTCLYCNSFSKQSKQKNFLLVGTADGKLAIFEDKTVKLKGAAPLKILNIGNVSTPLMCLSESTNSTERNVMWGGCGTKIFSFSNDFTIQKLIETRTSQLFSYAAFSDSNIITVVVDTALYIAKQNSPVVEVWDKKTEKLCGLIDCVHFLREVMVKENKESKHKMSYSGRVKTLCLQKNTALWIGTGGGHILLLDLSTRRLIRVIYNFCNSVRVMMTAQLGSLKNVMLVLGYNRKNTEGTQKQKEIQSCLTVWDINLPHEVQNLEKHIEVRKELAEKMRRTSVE

Variant | effect of a mutation on the interaction
F348A;L349A;Q350A;L396A;D397A;Y398A | with no effect
